Test results as given in PMC11035111, “Angiotension II directly bind P2X7 receptor to induce myocardial ferroptosis and remodeling by activating human antigen R” (Redox Biology, 2024).

Molecular target: T1, biotinylated angiotensin II (biotin (position not given))
T1 construct: angiotensin II, the peptide hormone cut from angiotensinogen; Held by its biotin on the SA chip (BLI) or on streptavidin beads (pull-down); also called Bio-Ang II; bio-Ang II; source: bought: created by Beijing Fanbo Biological Chemical Co., Ltd
Experiment: BLI; Octet R8; biotinylated Ang II (1 ug/ml in 1x PBS) captured on an SA chip to a signal of 0.8 nm; P2X7R protein in SD buffer at 1, 0.5, 0.25 and 0.0625 uM
Details: both partners purified

- Kd: 9.63 nM
B1: purified P2X7R protein (extracellular domain) (domain or fragment)
chain: SDKLYQRKEPLISSVHTKVKGVAEVTENVTEGGVTKLVHGIFDTADYTLPLQGNSFFVMTNYLKSEGQEQKLCPEYPSRGKQCHSDQGCIKGWMDPQSKGIQTGRCIPYDQKRKTCEIFAWCPAEEGKEAPRPALLRSAENFTVLIKNNIDFPGHNYTTRNILPGMNISCTFHKTWNPQCPIFRLGDIFQEIGENFTEVAVQGGIMGIEIYWDCNLDSWSHRCQPKYSFRRLDDKYTNESLFPGYNFRYAKYYKENGMEKRTLIKAFGVRFDILVFGTGGKF
